Molecular target: T1, Flag-tagged Cavβ3-subunit (rat, UniProt P54287 1-484)
T1 construct: whole, on cells; Flag-tagged in co-immunoprecipitation, pull-down and immunofluorescence; also called Flag-Cavβ3; N-Flag Cavβ3-subunits
Assay: dissociation of β3 from GST-AID by peptide, Western blot of the supernatant
Protocol: B, BARP displaces the Caᵥβ3-subunit from the AID. In vivo expressed Caᵥβ3-subunits were pulled-down using a GST-AID fusion protein and the complex then incubated with increasing amounts of AID or BARP Domain I peptide. The Caᵥβ3-subunit displaced from the GST-AID was monitored by Western blot.
Preparation of cell homogenates lysed into a buffer containing (50 mM Tris-HCl (pH 7.5), 100 mM NaCl, 1 mM MgCl₂, 0.5% Triton) supplemented with proteases inhibitors, co-immunoprecipitation and Western blot analysis using the generated antibodies together with monoclonal anti-FLAG(M2; Sigma), rabbit anti-GST (Santa Cruz Biotechnology), rabbit Caᵥ1.2 (Chemicon International), Caᵥ2.1(Alomone labs), Caᵥ2.2 (Calbiochem), Caᵥβ₃ (Alomone labs) antibodies were carried out essentially as described in. Brain, skeletal muscle and heart lysates were purchased from Zyagen Laboratories. In vitro synthesized BARP was produced by using the TNT quick coupled transcription/translation systems (Promega). For the dissociation experiments, an AID peptide ([…]) and a BARP domain I peptide ([…]) were synthesized (Mimotopes). […] After extensive wash to remove unassociated β₃-subunits, increasing concentration of peptide (30, 60, 300, 600 nM) were added. After an incubation of four hours, 10% of the supernatant containing the dissociated β₃-subunit were loaded on SDS-PAGE and subjected to Western blot analysis. […]

T1 sequence (P54287 whole entry): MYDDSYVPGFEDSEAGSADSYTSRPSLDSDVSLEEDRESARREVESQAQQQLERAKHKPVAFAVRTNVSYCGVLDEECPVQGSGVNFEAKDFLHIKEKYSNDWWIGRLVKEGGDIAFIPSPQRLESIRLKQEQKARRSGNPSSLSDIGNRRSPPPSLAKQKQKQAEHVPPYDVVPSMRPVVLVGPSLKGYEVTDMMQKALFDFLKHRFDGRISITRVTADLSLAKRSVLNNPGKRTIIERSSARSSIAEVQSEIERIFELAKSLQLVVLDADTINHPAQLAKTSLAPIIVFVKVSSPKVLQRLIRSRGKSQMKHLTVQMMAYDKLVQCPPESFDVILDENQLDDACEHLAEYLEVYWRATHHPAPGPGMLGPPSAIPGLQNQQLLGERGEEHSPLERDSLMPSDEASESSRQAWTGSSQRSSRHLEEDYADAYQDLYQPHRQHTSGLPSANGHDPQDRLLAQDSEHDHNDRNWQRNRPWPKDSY

binding result: binds
B1: BARP domain I peptide (peptide)
peptide: SYRDLWSLRASLELHAATASD
notes: Synthesized by Mimotopes; also called AID-like BARP peptide

From patent publication US20100272737A1 (AGENCY FOR SCIENCE TECHNOLOGY AND RESEARCH, published 2010)
